Reference: patent US11231420 (APTALOGIC, INC.)

Assays:
EBOV GP1,2 = EBOV GP1,2 (UniProt Q05320 Q05320:33-650); experiment: filter; settings: label: 5'-32P
[1] = molecular target: T1, EBOV sGP (soluble glycoprotein) (Zaire ebolavirus, UniProt P60170 P60170:33-324); experiment: filter; PBS with 5 mM Mg, pH 7; settings: tags: His-tag; chain copies: 2; label: 5'-32P
[2] = molecular target: T2, Lcn2 (lipocalin 2, uterocalin) (UniProt P11672 P11672:21-200); experiment: filter; text says Lcn2 not bound by the aptamers; settings: tags: His-tag; label: 5'-32P
T2 sequence: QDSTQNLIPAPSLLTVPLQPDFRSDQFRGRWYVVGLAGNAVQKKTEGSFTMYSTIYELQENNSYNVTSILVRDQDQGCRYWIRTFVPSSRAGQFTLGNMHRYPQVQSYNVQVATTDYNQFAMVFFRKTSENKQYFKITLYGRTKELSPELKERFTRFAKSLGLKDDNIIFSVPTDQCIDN

[3] = molecular target: T3, Human serum albumin (HSA) (Homo sapiens, UniProt P02768 P02768:25-609); experiment: filter; HSA up to 6 uM; settings: label: 5'-32P
[4] = molecular target: T3, Human serum albumin (HSA); experiment: filter; HSA tested up to 6 uM; estimated; settings: label: 5'-32P
[5] = molecular target: T1, EBOV sGP (soluble glycoprotein); experiment: filter; settings: tags: His-tag; chain copies: 2; label: 5'-32P
[6] = molecular target: T2, Lcn2 (lipocalin 2, uterocalin); experiment: filter; no serum; settings: tags: His-tag; label: 5'-32P
[7] = molecular target: T4, SUDV sGP (soluble glycoprotein) (Sudan ebolavirus, UniProt Q7T9E0 Q7T9E0:33-324); experiment: filter; no serum; settings: chain copies: 2; label: 5'-32P
T4 sequence: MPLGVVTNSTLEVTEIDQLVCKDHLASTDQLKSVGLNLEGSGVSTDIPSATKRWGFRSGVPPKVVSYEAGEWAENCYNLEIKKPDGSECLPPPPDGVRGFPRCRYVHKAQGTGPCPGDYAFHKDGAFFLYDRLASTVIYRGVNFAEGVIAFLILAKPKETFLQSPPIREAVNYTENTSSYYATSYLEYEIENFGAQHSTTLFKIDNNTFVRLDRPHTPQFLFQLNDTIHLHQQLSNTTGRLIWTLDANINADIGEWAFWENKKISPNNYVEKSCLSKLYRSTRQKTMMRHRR

T1 sequence (P60170 33-324, one chain of several): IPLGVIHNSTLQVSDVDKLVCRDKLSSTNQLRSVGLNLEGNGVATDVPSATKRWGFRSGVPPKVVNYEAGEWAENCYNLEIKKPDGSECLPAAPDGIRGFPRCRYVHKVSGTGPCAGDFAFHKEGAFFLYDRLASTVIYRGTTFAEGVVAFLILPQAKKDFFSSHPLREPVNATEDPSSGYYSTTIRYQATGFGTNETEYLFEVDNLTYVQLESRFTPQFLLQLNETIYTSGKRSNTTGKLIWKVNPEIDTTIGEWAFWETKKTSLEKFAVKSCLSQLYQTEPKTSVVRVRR
T3 sequence (P02768 25-609, one chain of several): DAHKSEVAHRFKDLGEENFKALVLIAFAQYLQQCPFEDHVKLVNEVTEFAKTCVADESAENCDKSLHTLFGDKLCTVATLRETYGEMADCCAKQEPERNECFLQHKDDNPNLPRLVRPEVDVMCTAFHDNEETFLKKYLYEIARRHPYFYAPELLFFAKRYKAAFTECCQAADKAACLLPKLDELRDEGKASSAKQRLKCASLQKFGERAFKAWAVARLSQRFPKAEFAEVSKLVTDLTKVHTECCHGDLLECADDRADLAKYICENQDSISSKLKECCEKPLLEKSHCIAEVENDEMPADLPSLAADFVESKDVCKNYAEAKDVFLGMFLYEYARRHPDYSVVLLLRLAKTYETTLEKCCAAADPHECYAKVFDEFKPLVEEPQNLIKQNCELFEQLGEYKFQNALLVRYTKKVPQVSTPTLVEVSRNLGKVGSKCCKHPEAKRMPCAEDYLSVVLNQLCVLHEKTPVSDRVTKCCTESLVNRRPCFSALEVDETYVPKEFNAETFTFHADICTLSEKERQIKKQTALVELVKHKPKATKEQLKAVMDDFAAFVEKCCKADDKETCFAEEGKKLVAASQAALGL
Chain of EBOV GP1,2 (Q05320 33-650, one chain of several): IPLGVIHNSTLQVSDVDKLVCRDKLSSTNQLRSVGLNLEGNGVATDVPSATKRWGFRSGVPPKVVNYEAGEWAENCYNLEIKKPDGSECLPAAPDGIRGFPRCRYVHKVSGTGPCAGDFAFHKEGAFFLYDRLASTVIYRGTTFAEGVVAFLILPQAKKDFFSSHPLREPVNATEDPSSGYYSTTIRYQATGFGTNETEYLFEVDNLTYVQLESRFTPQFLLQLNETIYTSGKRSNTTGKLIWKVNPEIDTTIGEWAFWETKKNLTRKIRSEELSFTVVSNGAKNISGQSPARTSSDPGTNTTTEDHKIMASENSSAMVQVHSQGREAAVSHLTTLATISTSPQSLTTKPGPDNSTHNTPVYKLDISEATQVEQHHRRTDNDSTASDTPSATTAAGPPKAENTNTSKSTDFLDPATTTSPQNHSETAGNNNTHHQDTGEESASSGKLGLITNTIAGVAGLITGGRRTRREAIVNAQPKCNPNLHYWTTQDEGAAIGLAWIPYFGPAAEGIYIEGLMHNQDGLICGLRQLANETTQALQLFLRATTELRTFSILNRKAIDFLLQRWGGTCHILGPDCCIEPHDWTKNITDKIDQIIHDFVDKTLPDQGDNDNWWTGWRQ

B1: Aptamer 6012 (ssDNA)
DNA: GCCTGTTGTGAGCCTCCTGTCGAACGTATTTCTTGCTTCCTTCCTTGCCGCGCACATTGCAGTATAAGTACCTGTCGTTGAGCGTTTATTCTTGTCTCCC
Kd (EBOV GP1,2): 22 nM | Kd [1]: 90 nM | binding result [2]: no binding | binding result [3]: no binding

B2: Aptamer 6022 (ssDNA)
DNA: GCCTGTTGTGAGCCTCCTGTCGAACCCTATCTTGTTCATGCTATTCTCAATATTTTCGGTTCACTTACCGTCTGCCTTTGAGCGTTTATTCTTGTCTCCC
Kd [1]: 100 nM | Kd [4]: ~100000 nM

B3: Aptamer 6021 (ssDNA)
DNA: GCCTGTTGTGAGCCTCCTGTCGAAACTGTACTTCACTTTTACCTCCTCTTGCTCTTATCTGTACTATTGTCTCTCCGTTGAGCGTTTATTCTTGTCTCCC
Kd [1]: 20 nM | binding result [3]: no binding

B4: Aptamer 6011 (ssDNA)
DNA: GCCTGTTGTGAGCCTCCTGTCGAACAACCACTCATATCTACTACATGACTTGCTCCATTCTGTTCTTTCTCTACGCATTGAGCGTTTATTCTTGTCTCCC
binding result (EBOV GP1,2): binds | Kd [5]: 30 nM | binding result [3]: no binding | binding result [6]: no binding | Kd [7]: 240 nM
